Experimental data as given in US20100015644A1.

Experiments:
[1] = biological target: FcγRIIIaECD176VHis batch 646-005-EP (CHO-K1SV derived) (human) (UniProt P08637); test: ELISA; FcγRIIIa176V directly coated or captured by anti-polyhistidine mAb
[2] = biological target: CD4 on CD4+ T cells (human) (UniProt P01730); test: cell-based or functional assay
[3] = biological target: FcγRIIIaECD176VHis (HEK-293F, prepared as in Example 4) (human) (UniProt P08637); test: AlphaScreen bridging assay: His-tagged FcγRIIIa176V on Ni-acceptor beads and sCD4-biotine on SA-donor beads; signal needs binding to both
Sequence of FcγRIIIaECD176VHis (HEK-293F, prepared as in Example 4) (human) (P08637 other isoform, or with tags, fused parts or gaps limits assumed): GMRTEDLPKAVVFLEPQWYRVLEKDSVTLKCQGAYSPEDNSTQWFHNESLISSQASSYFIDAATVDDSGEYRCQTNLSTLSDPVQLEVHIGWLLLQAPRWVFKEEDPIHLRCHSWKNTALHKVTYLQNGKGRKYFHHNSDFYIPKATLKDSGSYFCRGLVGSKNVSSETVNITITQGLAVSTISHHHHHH

[4] = biological target: FcγRIIIaECD176VHis (HEK-293F, prepared as in Example 4) (human) (UniProt P08637); test: ELISA, plate-bound FcγRIIIa176V; relative potency from EC50
sCD4 = sCD4 (UniProt P01730); test: ELISA, plate-bound sCD4 2.0 µg/ml; relative potency from EC50
[5] = biological target: Fc receptor on NK cells (effector cells of the ADCC assay) (human) (UniProt P08637); test: cell-based or functional assay
Sequence of Fc receptor on NK cells (effector cells of the ADCC assay) (human) (P08637 17-254): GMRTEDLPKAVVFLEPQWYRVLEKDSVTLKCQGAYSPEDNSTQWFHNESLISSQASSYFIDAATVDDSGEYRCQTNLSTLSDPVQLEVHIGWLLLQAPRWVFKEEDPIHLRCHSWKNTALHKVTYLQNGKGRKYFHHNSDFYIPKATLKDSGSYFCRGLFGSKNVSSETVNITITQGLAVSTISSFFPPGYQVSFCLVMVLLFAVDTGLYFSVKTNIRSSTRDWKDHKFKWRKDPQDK

Sequence of FcγRIIIaECD176VHis batch 646-005-EP (CHO-K1SV derived) (human) (P08637 other isoform, or with tags, fused parts or gaps limits assumed): as the sequence (P08637 other isoform, or with tags, fused parts or gaps limits assumed) above

Row | Substance | binding capacity (% of the reference batch) (% of reference batch MRS-CD4-001) [3] | relative potency (FcγRIIIa176V binding), Exp 1 (relative to MRS-CD4-001) [4] | relative potency (FcγRIIIa176V binding), Exp 2 (relative to MRS-CD4-001) [4] | relative potency (FcγRIIIa176V binding), mean (relative to MRS-CD4-001) [4] | relative potency (sCD4 binding), Exp 1 (relative to MRS-CD4-001) (sCD4) | relative potency (sCD4 binding), Exp 2 (relative to MRS-CD4-001) (sCD4) | relative potency (sCD4 binding), mean (relative to MRS-CD4-001) (sCD4) | Relative potency (ADCC), Exp 1 (relative to MRS-CD4-001) [5] | Relative potency (ADCC), Exp 2 (relative to MRS-CD4-001) [5] | Relative potency (ADCC), Exp (third) (relative to MRS-CD4-001) [5] | Relative potency (ADCC), mean (relative to MRS-CD4-001) [5] | further results
1 | HuMax-EGFr (antibody) |  |  |  |  |  |  |  |  |  |  |  | EC50 ratio of the two HuMax-EGFr batches [1]: 2
2 | zanolimumab (batch not stated) (antibody) |  |  |  |  |  |  |  |  |  |  |  | reduction of the level of CD4 expression after 18-24 h (flow cytometry with non-competing anti-CD4) [2]: 50 to 80%
3 | zanolimumab batch BN078 (antibody) | 89 |  |  |  |  |  |  |  |  |  |  | 
4 | zanolimumab batch BO118 (antibody) | 88 |  |  |  |  |  |  |  |  |  |  | 
5 | zanolimumab batch GMP#3 (antibody) |  | 1.12 | 1.12 | 1.12 | 0.91 | 0.92 | 0.92 | 0.98 | 1.3 | 1.45 | 1.24 | relative potency (FcγRIIIa176V binding), related to parent batch GMP#3 (relative to GMP#3) [4]: 1; Relative potency (ADCC), relative to batch GMP#3 (relative to GMP#3) [5]: 1
6 | zanolimumab batch MEV005 (antibody) | 84 |  |  |  |  |  |  |  |  |  |  | 
7 | zanolimumab batch MOCK-GMP#3-CD4 (sham-de-glycosylated) (antibody) |  | 1.23 | 1.23 | 1.23 | 0.98 | 0.85 | 0.92 | 1.38 | 1.55 | 1.42 | 1.45 | relative potency (FcγRIIIa176V binding), related to parent batch GMP#3 (relative to GMP#3) [4]: 1.09; Relative potency (ADCC), relative to batch GMP#3 (relative to GMP#3) [5]: 1.17
8 | zanolimumab batch MOCK-MRS-CD4 (sham-deglycosylated) (antibody) | 81 |  |  |  |  |  |  |  |  |  |  | 
9 | zanolimumab batch MRS-CD4-001 (antibody) |  | 1 | 1 | 1 | 1 | 1 | 1 | 1 | 1 | 1 | 1 | 
10 | zanolimumab batch UNG-GMP#3-CD4 (de-glycosylated) (antibody) |  |  |  |  | 0.96 | 1.01 | 0.99 |  |  |  |  | 
11 | zanolimumab mixed batch M50-GMP#3-CD4 (antibody) |  | 0.5 | 0.6 | 0.55 | 1.03 | 0.9 | 0.97 | 0.14 | 0.64 | 0.39 | 0.39 | relative potency (FcγRIIIa176V binding), related to parent batch GMP#3 (relative to GMP#3) [4]: 0.49; Relative potency (ADCC), relative to batch GMP#3 (relative to GMP#3) [5]: 0.31
12 | zanolimumab mixed batch M50-MRS-CD4 (antibody) | 53 |  |  |  |  |  |  |  |  |  |  | 
13 | zanolimumab mixed batch M90-MRS-CD4 (antibody) | 75 |  |  |  |  |  |  |  |  |  |  | relative potency (relative to MRS-CD4-001) [4]: 0.7
